Data from US20240376170A1 (BRIGHT PEAK THERAPEUTICS, published 2024).
Bridges are numbered along the chain shown (N, C = ends). Primed or numbered codes have the meaning given here. [ ]: non-standard residue; d: D form. 8x polyethylene glycol‑amino = O-(8x polyethylene glycol-amino)-tyrosine, SITE 45; 9x polyethylene glycol‑azido = O-(9x polyethylene glycol-azido)-tyrosine, SITE 42; Ygp = O-(8x polyethylene glycol-amino)-tyrosine (Tyr, amino-capped PEG8); Yn3 = O-(9x polyethylene glycol-azido)-tyrosine (Tyr, azide-capped PEG9); Ygp″ = O-(8x polyethylene glycol-amino)-tyrosine; Yn3″ = O-(9x polyethylene glycol-azido)-tyrosine; PEG4′ = 4x polyethylene glycol; hSer = N[C@@H](CCO)C(=O)O; Nle = CCCC[C@H](N)C(=O)O

T1: IL-2 receptor βγ complex (human, UniProt P14784 27-551; P31785 23-369)
T1 sequence (looked up) 1: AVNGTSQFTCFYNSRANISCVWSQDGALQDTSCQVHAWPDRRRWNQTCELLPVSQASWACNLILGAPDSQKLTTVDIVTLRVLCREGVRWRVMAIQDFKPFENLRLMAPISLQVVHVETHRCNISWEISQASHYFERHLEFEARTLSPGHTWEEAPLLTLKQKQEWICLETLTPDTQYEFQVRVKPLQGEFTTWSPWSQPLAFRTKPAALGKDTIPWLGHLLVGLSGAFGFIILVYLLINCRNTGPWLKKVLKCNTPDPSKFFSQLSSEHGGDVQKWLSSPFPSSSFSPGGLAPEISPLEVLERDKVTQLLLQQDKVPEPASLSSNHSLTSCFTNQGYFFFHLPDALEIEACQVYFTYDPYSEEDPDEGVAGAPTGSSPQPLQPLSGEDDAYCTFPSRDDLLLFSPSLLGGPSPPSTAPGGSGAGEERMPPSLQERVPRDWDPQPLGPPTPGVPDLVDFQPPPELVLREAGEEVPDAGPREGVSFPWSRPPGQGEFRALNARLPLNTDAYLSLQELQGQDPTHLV
T1 sequence (looked up) 2: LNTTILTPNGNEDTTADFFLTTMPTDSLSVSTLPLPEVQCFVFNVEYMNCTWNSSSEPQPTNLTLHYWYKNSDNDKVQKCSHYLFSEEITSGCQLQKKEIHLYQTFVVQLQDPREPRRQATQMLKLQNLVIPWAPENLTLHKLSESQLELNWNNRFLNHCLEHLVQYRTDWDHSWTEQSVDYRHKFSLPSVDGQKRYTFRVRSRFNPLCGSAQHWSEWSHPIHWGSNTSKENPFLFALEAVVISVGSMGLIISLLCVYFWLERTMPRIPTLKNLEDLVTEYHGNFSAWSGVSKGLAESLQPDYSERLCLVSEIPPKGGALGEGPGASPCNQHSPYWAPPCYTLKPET

B1: CMP-329, uPa cleaved molecule (ligand)
chain: APTSSSTKKTQLQLEHLLLDLQEILNGINNYKNPKLTR[Nle]L[hSer]Y(9x polyethylene glycol‑azido)KFY(8x polyethylene glycol‑amino)[Nle]PKKATELKHLQCLEEELKPLEEVL[hSer]LAQSKNFHLRPRDLISNINVIVLELKGSETTF[hSer]CEYADETATIVEFLNRWITFSQSIISTLT
modifications: not fully specified; also: K9 and E23 side chains attached to another sequence, uPa-cleaved product, remnants not given here
B2: CMP-329 (ligand)
chain: APTSSSTKKTQLQLEHLLLDLQEILNGINNYKNPKLTR[Nle]L[hSer][Yn3″]KF[Ygp″][Nle]PKKATELKHLQCLEEELKPLEEVL[hSer]LAQSKNFHLRPRDLISNINVIVLELKGSETTF[hSer]CEYADETATIVEFLNRWITFSQSIISTLT
modifications: bridge 9-23; not fully specified (bridges); ends not checked
B3: CMP-328, uPa cleaved molecule (ligand)
chain: APTSSSTKKTQLQLEHLLLDLQEILNGINNYKNPKLTR[Nle]L[hSer][Yn3″]KF[Ygp″][Nle]PKKATELKHLQCLEEELKPLEEVL[hSer]LAQSKNFHLRPRDLISNINVIVLELKGSETTF[hSer]CEYADETATIVEFLNRWITFSQSIISTLT
modifications: ends and bridges not checked; also: after uPa cleavage, remnants of the Lys9–Glu23 peptide linker not given here
B4: CMP-329, MMP2 cleaved molecule (ligand)
chain: APTSSSTKKTQLQLEHLLLDLQEILNGINNYKNPKLTR[Nle]L[hSer][Yn3″]KF[Ygp″][Nle]PKKATELKHLQCLEEELKPLEEVL[hSer]LAQSKNFHLRPRDLISNINVIVLELKGSETTF[hSer]CEYADETATIVEFLNRWITFSQSIISTLT
modifications: ends and bridges not checked; also: after MMP2 cleavage, remnants of the Lys9–Glu23 peptide linker not given here
B5: CMP-328, Matriptase cleaved molecule (ligand)
chain: APTSSSTKKTQLQLEHLLLDLQEILNGINNYKNPKLTR[Nle]L[hSer][Yn3″]KF[Ygp″][Nle]PKKATELKHLQCLEEELKPLEEVL[hSer]LAQSKNFHLRPRDLISNINVIVLELKGSETTF[hSer]CEYADETATIVEFLNRWITFSQSIISTLT
modifications: ends and bridges not checked; also: after matriptase cleavage, remnants of the Lys9–Glu23 peptide linker not given here
B6: CMP-317, MMP2 cleaved molecule (ligand)
chain: APTSSSTKKTQLQLEHLLLDLQEILNGINNYKNPKLTR[Nle]L[hSer]Y(9x polyethylene glycol‑azido)KFY(8x polyethylene glycol‑amino)[Nle]PKKATELKHLQCLEEELKPLEEVL[hSer]LAQSKNFHLRPRDLISNINVIVLELKGSETTF[hSer]CEYADETATIVEFLNRWITFSQSIISTLT
modifications: also: A1 attached to another sequence via 4x polyethylene glycol, E23 side chain attached to another sequence, m119 after MMP2 cleavage, product not given here as a sequence
B7: CMP-330, Matriptase cleaved molecule (ligand)
chain: APTSSSTKKTQLQLEHLLLDLQEILNGINNYKNPKLTR[Nle]L[hSer]Y(9x polyethylene glycol‑azido)KFY(8x polyethylene glycol‑amino)[Nle]PKKATELKHLQCLEEELKPLEEVL[hSer]LAQSKNFHLRPRDLISNINVIVLELKGSETTF[hSer]CEYADETATIVEFLNRWITFSQSIISTLT
modifications: not fully specified; also: K9 and E23 side chains attached to another sequence, matriptase-cleaved product, remnants not given here
B8: CMP-328, MMP2 cleaved molecule (ligand)
chain: APTSSSTKKTQLQLEHLLLDLQEILNGINNYKNPKLTR[Nle]L[hSer][Yn3″]KF[Ygp″][Nle]PKKATELKHLQCLEEELKPLEEVL[hSer]LAQSKNFHLRPRDLISNINVIVLELKGSETTF[hSer]CEYADETATIVEFLNRWITFSQSIISTLT
modifications: ends and bridges not checked; also: after MMP2 cleavage, remnants of the Lys9–Glu23 peptide linker not given here
B9: CMP-318 (ligand)
chain: SGRVANLVGAPTSSSTKKTQLQLEHLLLDLQEILNGINNYKNPKLTR[Nle]L[hSer][Yn3]KF[Ygp][Nle]PKKATELKHLQCLEEELKPLEEVL[hSer]LAQSKNFHLRPRDLISNINVIVLELKGSETTF[hSer]CEYADETATIVEFLNRWITFSQSIISTLT
modifications: lactam N-32; ends not checked
B10: CMP-330 (ligand)
chain: APTSSSTKKTQLQLEHLLLDLQEILNGINNYKNPKLTR[Nle]L[hSer]Y(9x polyethylene glycol‑azido)KFY(8x polyethylene glycol‑amino)[Nle]PKKATELKHLQCLEEELKPLEEVL[hSer]LAQSKNFHLRPRDLISNINVIVLELKGSETTF[hSer]CEYADETATIVEFLNRWITFSQSIISTLT
modifications: bridge 9-23; not fully specified (bridges)
B11: CMP-328 (ligand)
chain: APTSSSTKKTQLQLEHLLLDLQEILNGINNYKNPKLTR[Nle]L[hSer][Yn3″]KF[Ygp″][Nle]PKKATELKHLQCLEEELKPLEEVL[hSer]LAQSKNFHLRPRDLISNINVIVLELKGSETTF[hSer]CEYADETATIVEFLNRWITFSQSIISTLT
modifications: bridge 9-23; not fully specified (bridges); ends not checked
B12: CMP-329, Matriptase cleaved molecule (ligand)
chain: APTSSSTKKTQLQLEHLLLDLQEILNGINNYKNPKLTR[Nle]L[hSer][Yn3″]KF[Ygp″][Nle]PKKATELKHLQCLEEELKPLEEVL[hSer]LAQSKNFHLRPRDLISNINVIVLELKGSETTF[hSer]CEYADETATIVEFLNRWITFSQSIISTLT
modifications: ends and bridges not checked; also: after matriptase cleavage, remnants of the Lys9–Glu23 peptide linker not given here
B13: CMP-330, MMP2 cleaved molecule (ligand)
chain: APTSSSTKKTQLQLEHLLLDLQEILNGINNYKNPKLTR[Nle]L[hSer]Y(9x polyethylene glycol‑azido)KFY(8x polyethylene glycol‑amino)[Nle]PKKATELKHLQCLEEELKPLEEVL[hSer]LAQSKNFHLRPRDLISNINVIVLELKGSETTF[hSer]CEYADETATIVEFLNRWITFSQSIISTLT
modifications: not fully specified; also: K9 and E23 side chains attached to another sequence, MMP2-cleaved product, remnants not given here
B14: CMP-317 (ligand)
chain: GSGSGSG[PEG4′]APTSSSTKKTQLQLEHLLLDLQEILNGINNYKNPKLTR[Nle]L[hSer][Yn3]KF[Ygp][Nle]PKKATELKHLQCLEEELKPLEEVL[hSer]LAQSKNFHLRPRDLISNINVIVLELKGSETTF[hSer]CEYADETATIVEFLNRWITFSQSIISTLT
modifications: bridge N-31; not fully specified (bridges); ends not checked
B15: CMP-319 (ligand)
chain: RGRRVANLVGAPTSSSTKKTQLQLEHLLLDLQEILNGINNYKNPKLTR[Nle]L[hSer][Yn3]KF[Ygp][Nle]PKKATELKHLQCLEEELKPLEEVL[hSer]LAQSKNFHLRPRDLISNINVIVLELKGSETTF[hSer]CEYADETATIVEFLNRWITFSQSIISTLT
modifications: lactam N-33; ends not checked
B16: CMP-330, uPa cleaved molecule (ligand)
chain: APTSSSTKKTQLQLEHLLLDLQEILNGINNYKNPKLTR[Nle]L[hSer]Y(9x polyethylene glycol‑azido)KFY(8x polyethylene glycol‑amino)[Nle]PKKATELKHLQCLEEELKPLEEVL[hSer]LAQSKNFHLRPRDLISNINVIVLELKGSETTF[hSer]CEYADETATIVEFLNRWITFSQSIISTLT
modifications: not fully specified; also: Lys9 side chain attached to another sequence, Glu23 side chain attached to another sequence

Target: T1, IL-2 receptor βγ complex
Experiment: cell-based or functional assay

Binder | Average EC50, pSTAT5 Assay in NK cells [nM]
B1 | 18.1
B2 | 20.6
B3 | 2.96
B4 | 0.687
B5 | 4.28
B6 | 12.2
B7 | 16.4
B8 | 1.48
B9 | 37.4
B10 | 20.3
B11 | 9.23
B12 | 14.4
B13 | 6.12
B14 | 34.1
B15 | 7.72
B16 | 27
